The results in this text go back to patent publication US20140186897A1, “TRANSFORMANT OF YEAST OF GENUS SCHIZOSACCHAROMYCES, METHOD FOR PRODUCING SAME, METHOD FOR PRODUCING ß-GLUCOSIDASE, AND CELLULOSE DEGRADATION METHOD” (ASAHI GLASS COMPANY, LIMITED, priority 2011, published 2014).

Changes are numbered by the printed parent chain. Numbers in names are those of the source.

A short description of data set [1]: thermostability measurement (residual glucosidase activity after heat treatment). As to conditions: for Residual glucosidase activity, Temp 50° C. / Residual glucosidase activity, Temp 55° C. / Residual glucosidase activity, Temp 60° C. / Residual glucosidase activity, Temp 65° C. / Residual glucosidase activity, Temp 70° C. / Residual glucosidase activity, Temp 73° C. / Residual glucosidase activity, Temp 75° C. / Residual glucosidase activity, Untreated: Example 9; for Residual glucosidase activity, Temp 50° C.: 10 minutes at 50° C.; for Residual glucosidase activity, Temp 55° C.: 10 minutes at 55° C.; for Residual glucosidase activity, Temp 60° C.: 10 minutes at 60° C.; for Residual glucosidase activity, Temp 65° C.: 10 minutes at 65° C.; for Residual glucosidase activity, Temp 70° C.: 10 minutes at 70° C.; for Residual glucosidase activity, Temp 73° C.: 10 minutes at 73° C.; for Residual glucosidase activity, Temp 75° C.: 10 minutes at 75° C.; for Residual glucosidase activity, Untreated: no heat treatment (reference set to 100); for thermostability (in words): compared with P3AaBGL1 / β-glucosidase without the mutation. Type of data set: physicochemical. On the procedure: To 10 μl of 20 mM pNPG, 10 μl of 1M sodium acetate buffer solution (pH 5.0) and 130 μl of water were added, and then 50 μl of a diluted enzyme sample preliminarily heat-treated at […] for 10 minutes was introduced for reacting them at 37° C. for 10 minutes. As a control, a diluted enzyme sample which was not subjected to the heat treatment was used, and then the reaction was carried out at 37° C. for 10 minutes, in the same manner. 100 μl of each reaction mixture was mixed with 100 μl of 2% sodium carbonate solution to terminate reaction, and then the amount of liberated p-nitrophenol was colorimetrically measured at a wavelength of 450 nm.
The ratio (%) of the colorimetric value of each reaction mixture to the colorimetric value of the control sample (untreated sample) was defined as the residual activity after heat treatment.
(§1) By using the above-obtained culture supernatant of the P3AaBGL1 mutant strain, a diluted enzyme sample was prepared, and then the enzymatic activity of the sample was measured in accordance with the above-described activity measurement method. Further, the glucose inhibition at a final glucose concentration of from 0.1 to 200 mM and the thermostability at a warming temperature of from 50 to 75° C. were measured for evaluation.
(§2) 11F10 strain, 22A12 strain, 28C02 strain, 29F09 strain and mutBGL1 strain selected from the mutant strains, and ASP3326 strain as the original strain were cultivated in a Sakaguchi flask containing 100 ml of YPD medium at 30° C. for two days. To each of the culture supernatants obtained by cultivating them, […] was added until 80% saturation was reached, thereby to carry out ammonium sulfate precipitation at 4° C. for 2 hours. Thereafter, centrifugation was carried out to collect pellets, and the pellets were dissolved in 10 ml of 10 mM citrate phosphate buffer solution (pH 7.0). Then, desalting and concentration were carried out by using an ultrafiltration membrane having MWCO of 100,000, thereby to recover 1 ml of a crude liquid. Thus recovered crude liquid was purified by using Hitrap QXL column to collect a fraction of a peak of pNPG activity, thereby to obtain a purified sample. Elution was carried out by using a 10 mM citrate phosphate buffer solution (pH 7.0) and a NaCl concentration gradient (0 to 1M).
(§3) In the same manner as in Example 1, the residual glucosidase activities after glucose inhibition at a glucose concentration of from 0.1 to 200 mM were measured. Further, the residual glucosidase activities after heat treatment at a temperature of from 50 to 75° C. for 10 minutes were measured.

Data set [2] can be described thus: glucose inhibition measurement (residual glucosidase activity in the presence of glucose). The note with it: for Residual glucosidase activity, Glc 0 mM / Residual glucosidase activity, Glc 1 mM / Residual glucosidase activity, Glc 5 mM / Residual glucosidase activity, Glc 10 mM / Residual glucosidase activity, Glc 20 mM / Residual glucosidase activity, Glc 50 mM / Residual glucosidase activity, Glc 100 mM / Residual glucosidase activity, Glc 200 mM: Example 9; for Residual glucosidase activity, Glc 0 mM: glucose 0 mM (reference set to 100); for Residual glucosidase activity, Glc 1 mM: glucose 1 mM; for Residual glucosidase activity, Glc 5 mM: glucose 5 mM; for Residual glucosidase activity, Glc 10 mM: glucose 10 mM; for Residual glucosidase activity, Glc 20 mM: glucose 20 mM; for Residual glucosidase activity, Glc 50 mM: glucose 50 mM; for Residual glucosidase activity, Glc 100 mM: glucose 100 mM; for Residual glucosidase activity, Glc 200 mM: glucose 200 mM; for resistance to glucose inhibition (in words): compared with P3AaBGL1 / β-glucosidase without the mutation. Type of data set: biochemical. On the procedure: To 10 μl of 20 mM pNPG, 10 μl of 1M sodium acetate buffer solution (pH 5.0) and from 4 to 10 μl of 1M glucose (final concentration of from 20 to 50 mM) were added, followed by addition of water up to the total volume of 150 μl. Thereafter, 50 μl of the diluted enzyme sample was introduced for reacting them at 37° C. for 10 minutes. As a control, a glucose-free reaction mixture was used, and then the reaction was carried out at 37° C. for 10 minutes, in the same manner. 100 μl of each reaction mixture was mixed with 100 μl of 2% sodium carbonate solution to terminate reaction, and then the amount of liberated p-nitrophenol was colorimetrically measured at a wavelength of 450 nm.
The ratio (%) of the colorimetric value of each reaction mixture to the colorimetric value of the control sample (glucose-free sample) was defined as the residual activity after glucose inhibition.
as §1, §2, §3

Data set [3] in a line: glucosidase activity measurement of culture supernatant (pNPG). Type of data set: biochemical. On the procedure: A mutant strain which formed a large colony was selected from P3AaBGL1 mutant strain library. Then, thus selected strain and P3ASP3326 strain as the original strain were cultivated in 150 μl/well (96-well plate) of YES medium at 30° C. for two days. 50 μl of each culture supernatant was diluted by 150 μl of 50 mM acetate buffer (pH 5.0) to prepare a diluted enzyme sample. Then, the enzymatic activity of the sample was measured in accordance with the following method.
To 10 μl of 20 mM p-nitrophenyl-β-D-glucoside (hereinafter abbreviated as pNPG), 10 μl of 1M sodium acetate buffer solution (pH 5.0) and 130 μl of water were added, and then 50 μl of the diluted enzyme sample was introduced for reacting them at 37° C. for 10 minutes. 100 μl of the reaction mixture was mixed with 100 μl of 2% sodium carbonate solution to terminate reaction, and then the amount of free p-nitrophenol was colorimetrically measured at a wavelength of 450 nm.
The amount of enzyme that produces 1 μmol of p-nitrophenol per minute was defined as 1 U.
The P3AaBGL1 mutant strain obtained as above was cultivated in YES medium at 30° C. for one day. 100 μl of the culture broth was inoculated on 5 ml of YPD medium (1% of yeast extract, 2% of peptone, and 2% of glucose), followed by cultivation at 30° C. for two days. Thereafter, the culture broth was centrifuged to obtain a culture supernatant.
as §1

The mark [4] stands for this setting: culture supernatant, relative to 0 mM glucose, Tables 7-10.

Take 6H05: the “Residual activity, Temp 65° C.” value in data set [1] (culture supernatant warmed 10 minutes at 65° C., relative to no heat treatment, Tables 7-10) was 73%. For the same molecule, the “Residual activity, Temp 67° C.” value in data set [1] (culture supernatant warmed 10 minutes at 67° C., relative to no heat treatment, Tables 7-10) was determined as 59%. Further, in data set [2] (setting [4]), the “Residual activity, Glc 20 mM” value was 41% and the “Residual activity, Glc 50 mM” value came to 23%. This molecule also came in with an Activity in data set [3] (pNPG, pH 5.0, 37° C., 10 minutes, Tables 7-10) of 525 mU/ml.

B1: I260F: modified-type P3AaBGL1 with I260F only (mutation 1) (protein)
chain: MKITAVIALLFSLAAASPIPVADPGVVSVSLKKRADELAFSPPFYPSPWANGQGEWAEAYQRAVAIVSQMTLDEKVNLTTGTGWELEKCVGQTGGVPRLNIGGMCLQDSPLGIRDSDYNSAFPAGVNVAATWDKNLAYLRGQAMGQEFSDKGIDVQLGPAAGPLGRSPDGGRNWEGFSPDPALTGVLFAETIKGIQDAGVVATAKHYILNEQEHFRQVAEAAGYGFNISDTISSNVDDKTIHEMYLWPFADAVRAGVGAFMCSYNQINNSYGCQNSYTLNKLLKAELGFQGFVMSDWGAHHSGVGSALAGLDMSMPGDITFDSATSFWGTNLTIAVLNGTVPQWRVDDMAVRIMAAYYKVGRDRLYQPPNFSSWTRDEYGFKYFYPQEGPYEKVNHFVNVQRNHSEVIRKLGADSTVLLKNNNALPLTGKERKVAILGEDAGSNSYGANGCSDRGCDNGTLAMAWGSGTAEFPYLVTPEQAIQAEVLKHKGSVYAITDNWALSQVETLAKQASVSLVFVNSDAGEGYISVDGNEGDRNNLTLWKNGDNLIKAAANNCNNTIVVIHSVGPVLVDEWYDHPNVTAILWAGLPGQESGNSLADVLYGRVNPGAKSPFTWGKTREAYGDYLVRELNNGNGAPQDDFSEGVFIDYRGFDKRNETPIYEFGHGLSYTTFNYSGLHIQVLNASSNAQVATETGAAPTFGQVGNASDYVYPEGLTRISKFIYPWLNSTDLKASSGDPYYGVDTAEHVPEGATDGSPQPVLPAGGGSGGNPRLYDELIRVSVTVKNTGRVAGDAVPQLYVSLGGPNEPKVVLRKFDRLTLKPSEETVWTTTLTRRDLSNWDVAAQDWVITSYPKKVHVGSSSRQLPLHAALPKVQ
For the molecule B1, in data set [1], the “Residual glucosidase activity, Temp 50° C.” value was found to be 97.0%; the “Residual glucosidase activity, Temp 55° C.” value came to 91.2%; the “Residual glucosidase activity, Temp 60° C.” value is 87.7%; the “Residual glucosidase activity, Temp 65° C.” value is recorded as 65.2%. For the same molecule, in data set [1], the “Residual glucosidase activity, Temp 70° C.” value worked out at 22.6%; the “Residual glucosidase activity, Temp 73° C.” value was 1.8%; the “Residual glucosidase activity, Temp 75° C.” value came out at 1.8%; the “Residual glucosidase activity, Untreated” value worked out at 100%. Besides, the “thermostability (in words)” value in data set [1] was “increase”. Also, in data set [2], the “Residual glucosidase activity, Glc 0 mM” value was 100%; the “Residual glucosidase activity, Glc 1 mM” value was found to be 95.9%; the “Residual glucosidase activity, Glc 5 mM” value was 73.6%; the “Residual glucosidase activity, Glc 10 mM” value is 55.6%. Moreover, in data set [2], the “Residual glucosidase activity, Glc 20 mM” value is given as 39.0%; the “Residual glucosidase activity, Glc 50 mM” value was determined as 20.2%; the “Residual glucosidase activity, Glc 100 mM” value was found to be 11.4%; the “Residual glucosidase activity, Glc 200 mM” value stood at 6.3%. In data set [2], the “resistance to glucose inhibition (in words)” value is reported as “increase”. In data set [3] (Example 9, Table 11), this molecule showed an Activity of 457 mU/ml.

B2: R629L: modified-type P3AaBGL1 with R629L only (mutation 6) (protein)
chain: B1 chain with F260I, R629L
For B2, in data set [1], the “Residual glucosidase activity, Temp 50° C.” value worked out at 98.7%; the “Residual glucosidase activity, Temp 55° C.” value came out at 93.7%; the “Residual glucosidase activity, Temp 60° C.” value is given as 90.7%; the “Residual glucosidase activity, Temp 65° C.” value is reported as 71.8%. In data set [1], the “Residual glucosidase activity, Temp 70° C.” value was 26.5%; the “Residual glucosidase activity, Temp 73° C.” value came to 3.5%; the “Residual glucosidase activity, Temp 75° C.” value was 1.5%; the “Residual glucosidase activity, Untreated” value stood at 100%. Also, in data set [1], the “thermostability (in words)” value was “can be improved”. In addition, in data set [2], the “Residual glucosidase activity, Glc 0 mM” value is listed as 100%; the “Residual glucosidase activity, Glc 1 mM” value was 91.5%; the “Residual glucosidase activity, Glc 5 mM” value is listed as 67.4%; the “Residual glucosidase activity, Glc 10 mM” value was found to be 53.9%. In data set [2], the “Residual glucosidase activity, Glc 20 mM” value came out at 37.6%; the “Residual glucosidase activity, Glc 50 mM” value amounted to 19.6%; the “Residual glucosidase activity, Glc 100 mM” value is 11.1%; the “Residual glucosidase activity, Glc 200 mM” value is 6.9%. Moreover, the “resistance to glucose inhibition (in words)” value in data set [2] was “without decreasing”. The molecule further showed an Activity in data set [3] (Example 9, Table 11) of 526 mU/ml.

B3: N458S: modified-type P3AaBGL1 with N458S only (mutation 3) (protein)
chain: B1 chain with F260I, N458S
Regarding B3, in data set [1], the “Residual glucosidase activity, Temp 50° C.” value is on record as 98.6%; the “Residual glucosidase activity, Temp 55° C.” value stood at 95.7%; the “Residual glucosidase activity, Temp 60° C.” value was found to be 91.6%; the “Residual glucosidase activity, Temp 65° C.” value worked out at 64.2%. In data set [1], the “Residual glucosidase activity, Temp 70° C.” value was 19.4%; the “Residual glucosidase activity, Temp 73° C.” value is on record as 0.8%; the “Residual glucosidase activity, Temp 75° C.” value stood at 1.6%; the “Residual glucosidase activity, Untreated” value turned out to be 100%. For the same molecule, the “thermostability (in words)” value in data set [1] is “can be improved”. In data set [2], the “Residual glucosidase activity, Glc 0 mM” value came to 100%; the “Residual glucosidase activity, Glc 1 mM” value is given as 92.7%; the “Residual glucosidase activity, Glc 5 mM” value turned out to be 68.1%; the “Residual glucosidase activity, Glc 10 mM” value is recorded as 52.1%. In addition, in data set [2], the “Residual glucosidase activity, Glc 20 mM” value was found to be 35.9%; the “Residual glucosidase activity, Glc 50 mM” value is 17.7%; the “Residual glucosidase activity, Glc 100 mM” value is 10.4%; the “Residual glucosidase activity, Glc 200 mM” value was 6.0%. For the same molecule, in data set [2], the “resistance to glucose inhibition (in words)” value was “without decreasing”. Further, in data set [3] (Example 9, Table 11), the Activity is reported as 586 mU/ml.
